Assay results taken from PMC5725786, “Characterization of interactions between hepatitis C virus NS5B polymerase, annexin A2 and RNA – effects on NS5B catalysis and allosteric inhibition”.

Assays:
[1] = molecular target: Bovine annexin A2 (bovine) (UniProt P04272); assay: SPR; AnxA2 or mAnxA2 immobilised on a CM5 chip by amine coupling, NS5B (31 to 500 nM) as analyte; multi cycle with regeneration (2 M NaCl and 2 M MgCl2); 25 °C, HBS-EP pH 7.4 with 70 uM Ca2+ and 1 mM Mg2+; approximate steady state analysis, apparent KD
[2] = molecular target: Bovine annexin A2 engineered variant unable to bind RNA (mAnxA2) (bovine) (UniProt P04272); assay: as above
AnxA2 (annexin A2, wt) [3] = molecular target: T1, AnxA2 (annexin A2, wt) (Bos taurus (bovine), UniProt P04272 1-339); assay: SPR; kinetic 1:1 fit (ka 0.99e6 1/Ms, kd 0.002 1/s); 70 uM Ca2+, 1 mM Mg2+; AnxA2 immobilized; HBS-EP: 10 mM HEPES pH 7.4, 150 mM NaCl, 3 mM EDTA, 0.005% Surfactant P20, 70 uM Ca2+, 1 mM Mg2+, 25 °C; conditions: protein: recombinant; single strand
AnxA2 (annexin A2, wt) [4] = molecular target: T1, AnxA2 (annexin A2, wt); assay: SPR; steady-state analysis; 70 uM Ca2+, 1 mM Mg2+; AnxA2 immobilized; HBS-EP: 10 mM HEPES pH 7.4, 150 mM NaCl, 3 mM EDTA, 0.005% Surfactant P20, 70 uM Ca2+, 1 mM Mg2+, 25 °C; conditions: protein: recombinant; single strand
mAnxA2 = mAnxA2 (Bos taurus (bovine), UniProt P04272 1-339, K308S;K309S;K310S;K313S;Y317S;Q321S); assay: SPR; 3-100 nM RNA over immobilized mAnxA2; 70 uM Ca2+, 1 mM Mg2+; HBS-EP: 10 mM HEPES pH 7.4, 150 mM NaCl, 3 mM EDTA, 0.005% Surfactant P20, 70 uM Ca2+, 1 mM Mg2+, 25 °C; conditions: protein: recombinant; single strand

Molecule | Kd [1] | Kd [2] | Kd (AnxA2 (annexin A2, wt) [3]) | Kd (AnxA2 (annexin A2, wt) [4]) | binding result (mAnxA2)
HCV NS5B polymerase, ectodomain (NS5BΔ21), genotype 1b (enzyme) | 30 nM | 240 nM | – | – | –
GGGGAUUG (ssRNA) [8-mer RNA] | – | – | 2 nM | 8.3 nM | no binding
